Here are results for 4 molecules from publication PMC4683182, “Global Regulator IscR Positively Contributes to Antimonite Resistance and Oxidation in Comamonas testosteroni S44”.

The target of the data set is T1, IscR (His-tagged) (Comamonas testosteroni S44, UniProt A0A0L7MDB4 1-178).
T1 sequence: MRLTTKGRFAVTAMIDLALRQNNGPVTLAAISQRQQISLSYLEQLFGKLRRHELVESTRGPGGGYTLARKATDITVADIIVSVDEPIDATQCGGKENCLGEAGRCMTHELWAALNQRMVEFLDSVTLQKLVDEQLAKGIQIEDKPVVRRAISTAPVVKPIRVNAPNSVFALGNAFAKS
In words: EMSA; 100 mM HEPES pH 7.6, 5 mM EDTA, 50 mM (NH4)2SO4, 5 mM DTT, 1% (w/v) Tween 20, 150 mM KCl; 30 min at 30 C; 20 uL; 6% native PAGE, ethidium bromide. The following applies: protein: recombinant; tags: His-tag (pET-28a(+)); chain copies: 2. A general note: Mobility shift assays separate free from complexed probe on a gel.

Changes are numbered by the printed parent chain.

B1: Site A* 30-bp (dsDNA)
DNA 1: CTGTTACCCGACAAAGCTGGCGGGGAATGT
DNA 2: ACATTCCCCGCCAGCTTTGTCGGGTAACAG
With B1, the binding result was “no binding”.

B2: Site B* 30-bp (dsDNA)
DNA 1: GATGCGCTCGCCTCAAACACTCAACAACAA
DNA 2: TTGTTGTTGAGTGTTTGAGGCGAGCGCATC
As to B2, the binding result is listed as “no binding”.

B3: Site A 30-bp (dsDNA)
DNA 1: CTGTTACCCGACAAAATTGATGGGGAATGT
DNA 2: ACATTCCCCATCAATTTTGTCGGGTAACAG
For B3, the binding result was “binds”.

B4: Site B 30-bp (dsDNA)
DNA 1: B2 DNA 1 with G4A, C5T, G6A
DNA 2: B2 DNA 2 with C25T, G26A, C27T
As for B4, the binding result was “binds”.
